This is an account of results in US10577618B2, “Class of glyphosate resistance genes” (Dow AgroSciences LLC, priority 2012, dated 2020).

“Also recorded” adds a separate entry of the source.

One data set concerns T1 Arabidopsis. As to the kind of experiment: Glyphosate tolerance of transformed T1 Arabidopsis, postemergence spray, visual % injury. Type of data set: in vivo, Arabidopsis thaliana. From the text: Transgenic T1 Arabidopsis plants containing the dgt-28 transgene were sprayed with differing rates of glyphosate. Elevated rates were applied in this study to determine the relative levels of resistance (105, 420, 1,680 or 3,360 g ae/ha). A typical 1× field usage rate of glyphosate is 1120 g ae/ha. The T1 Arabidopsis plants that were used in this study were variable copy number for the dgt-28 transgene. The low copy dgt-28 T1 Arabidopsis plants were self-pollinated and used to produce T2 plants.
The Arabidopsis T1 transformants were first selected from the background of untransformed seed using a glufosinate selection scheme. Three flats or 30,000 seed were analyzed for each T1 construct. The T1 plants selected above were molecularly characterized and the high copy number plants were subsequently transplanted to individual pots and sprayed with various rates of commercial glyphosate as previously described. The response of these plants is presented in terms of % visual injury 2 weeks after treatment (WAT). […] An arithmetic mean and standard deviation is presented for each construct used for Arabidopsis transformation. The range in individual response is also indicated in the last column for each rate and transformation. Wild-type, non-transformed Arabidopsis (c.v. Columbia) served as a glyphosate sensitive control.
T1 plants were sampled and copy number analysis for the dgt-31, dgt-32, and dgt-33 v1 gene were completed. T1 plants were then assigned to various rates of glyphosate so that a range of copies were among each rate. For Arabidopsis, 26.25 g ae/ha glyphosate is an effective dose to distinguish sensitive plants from ones with meaningful levels of resistance. Elevated rates were applied to determine relative levels of resistance (105, 420, 1680, or 3360 g ae/ha).
All glyphosate herbicide applications were made by track sprayer in a 187 L/ha spray volume. Glyphosate used was of the commercial Durango dimethylamine salt formulation (480 g ae/L, Dow AgroSciences, LLC). […]

In data set [1] the test system is EPSP synthase (DGT enzymes). As to the kind of experiment: In vitro kinetic characterization of plant and bacterial DGT enzymes (Pi production, malachite green). Type of data set: biochemical. The settings on record: for Km: read-out: KM^PEP, Km for phosphoenolpyruvate; for decrease in catalytic efficiency: relative to DGT-28 v1. On the procedure: Recombinant DGT proteins were overexpressed in Rosetta2™ (DE3) cells (Novagen™, Madison, Wis.) from the constructs described above. A single colony was used to inoculate 50 mL starter cultures of LB containing chloramphenicol (25 μg/mL) and kanamycin (50 μg/mL) which were cultivated overnight at 37° C. The overnight cultures were used to inoculate 1 L of LB containing chloramphenicol (25 μg/mL) and kanamycin (50 μg/mL). The cultures were grown at 37° C. to an O.D.600=0.6 then placed in an ice water bath for 10 minutes. Expression of the target proteins was achieved by addition of IPTG to a final concentration of 500 μM.
DGT enzymes were purified to homogeneity in one step via immobilized metal affinity chromatography (IMAC) using a 5 mL HisTrap FF crude column. The column was equilibrated in Buffer A and the sample was loaded in the same buffer. The column was then washed with 10 column volumes of Buffer A followed by elution in a 0-100% Buffer B (50 mM HEPES pH 7.5, 200 mM KCl, 2 mM DTT, 1 mM EDTA, 500 mM imidazole, and 5% glycerol) linear gradient over 25 column volumes. Fractions containing target protein, as judged by SDS-PAGE analysis, were concentrated to 2.5 mL using a Millipore ultracentrifugation device equipped with a 10 kDa molecular weight cut-off (MWCO). The purified DGT enzymes were buffer exchanged using PD-10 columns (GE Healthcare) into 50 mM HEPES pH 7.5, 150 mM KCl, 2 mM DTT, and 5% glycerol and subsequently concentrated ˜1 mL. Samples were typically diluted 1:50 and the UV-visible spectrum was recorded from 240-700 nm on a Cary50™ Bio UV-visible spectrophotometer. A theoretical extinction coefficient was then used to calculate the protein concentration based on the absorbance at 280 nm (ExPASy, Geneva, Switzerland).
Frozen pellets were resuspended in 20-30 mL buffer A (50 mM HEPES pH 7.5, 100 mM KCl, 1 mM EDTA, 5% glycerol, and 1 mM DTT) and 1 tablet of protease inhibitor (Roche Complete). Once the pellet was completely resolubilized 1 mg/mL of lysozyme was added and the sample was mixed at 4° C. for 15-20 minutes. Following the incubation with the lysozyme the sample was transferred to a 50 mL centrifuge tube and placed on ice. The sample was then sonicated for 1 minute intervals followed by 4 minutes of cooling. This step was repeated two more times for a total of three sonication cycles. Cell debris was removed by centrifugation at 16,500 rpm for 45 minutes and the supernatant was loaded into a 50 mL injection loop. The crude lysate was applied to an amylose column, washed for 7 column volumes with buffer A, and eluted in 100% buffer B (Buffer A and 10 mM maltose). Target protein was pooled and concentrated to 2.5 mL using a 30 kDa MWCO centricon. The purified protein was buffer exchanged into 50 mM HEPES pH 7.5, 100 mM KCl, and 5% glycerol using a PD-10 gel filtration column. Protein concentrations were determined via Bradford assay using BSA as a standard. The pure protein was frozen in liquid nitrogen and stored at −80° C.
The enzyme activities of wild-type (WT) and mutant DGTs were measured by inorganic phosphate (Pi) production in a modified procedure described by Lanzetta et al. (1979) Anal. Bioch. 100:95-7. Assays were performed in 96-well plate format in a total of 50 μL on a Spectra-Max 190 plate reader (Molecular Devices, Sunnyvale, Calif.). Typical assays contained 50 mM HEPES pH 7.5, 150 mM KCl, 2 mM DTT, and 1 mM S3P. […] Glyphosate was obtained from Sigma as the free acid and was resuspended in ddH2O. Glyphosate was solubilized by addition of KOH until the mixture was at a neutral pH. Assays were initiated by addition of the DGT enzyme at concentrations that varied between 0.01-1 μM. Reactions were terminated by the addition of 235 μL of a 3:1 mixture of malachite green: ammonium molybdate solution. After complete color development (˜1 minute), the absorbance change at 660 nm was recorded and the amount of Pi formed was calculated from a standard curve. […]

B1: DGT-31: Streptomyces Class IV EPSP synthase, GENBANK YP_004922608.1, SEQ ID NO:145 (protein)
chain: MTVIDIPGSKSVTARALFLAAAADGTTTLLRPLHSDDTEGFTEGLTRLGYAVVREPDRWHIEGRPSGPAAADAEVHCRDGATTARFLPTLAAAAASGTYRFDASAQMRRRPLAPLTEALRTLGVDLRHDGAEGHHPLTIQASGVKGGGLTLDAGESSQYLTALLMLGPLTAEGLRIEVTELVSAPYVEITLAMMRGFGVEVVREGNTFTVPPGGYRATTYAIEPDASTASYFFAAAALTGREVTVPGLGTGALQGDLRFTEVLRRMDADVRTTSDSTTVRSDGRLAGLTVNMRDISDTMPTLAAIAPYASSPVRIEDVANTRVKECDRLEACAQNLRSMGITVRTGPDWIEIHPGTPRPTEIATHGDHRIVMSFAVAGLRTPGMSYDDPGCVRKTFPRFHEEFAAFVERSSAGE
modifications: Streptomyces pratensis ATCC 33331
As for B1, in the data set on T1 Arabidopsis, the “tolerance to glyphosate” value is on record as “slight herbicide tolerance”.

B2: DGT-32: Streptomyces Class IV EPSP synthase, GENBANK ZP_04696613, SEQ ID NO:68 (protein)
chain: DRWRVQGRPAGPAATEADVYCRDGATTARFLPTLAAAAASGTYRFDASAQMRRRPLAPLTRALTALGVDLRH
modifications: Streptomyces roseosporus NRRL 15998
Consider B2, for which the “tolerance to glyphosate” value in the data set with T1 Arabidopsis is recorded as “significant tolerance; also recorded: robust tolerance”. In data set [1], the Km is 140 µM and the “decrease in catalytic efficiency” value is given as 100 fold.

B3: DGT-33: Streptomyces Class IV EPSP synthase, GENBANK NC_010572, SEQ ID NO:67 (protein)
chain: DRWRVEGRPDGPAAPDADVYCRDGATTARFLPTLVAAAASGTYRFDASAQMRRRPLAPLTRALTALGVDLRH
modifications: Streptomyces griseus subsp. griseus NBRC 13350
Regarding B3, the “tolerance to glyphosate” value in the data set with T1 Arabidopsis is given as “significant tolerance; also recorded: robust tolerance”. Further, in data set [1], the Km was found to be 114 µM and the “decrease in catalytic efficiency” value is reported as 100 fold.

B4: DGT-28v1: Class IV EPSP synthase from Streptomyces sviceus ATCC29083, SEQ ID NO:1, native (protein, listed as Streptomyces sviceus)
chain: MRGMPALSLPGSKSITARALFLAAAADGVTTLVRPLRSDDTEGFAEGLVRLGYRVGRTPDTWQVDGRPQGPAVAEADVYCRDGATTARFLPTLAAAGHGTYRFDASPQMRRRPLLPLSRALRDLGVDLRHEEAEGHHPLTVRAAGVEGGEVTLDAGQSSQYLTALLLLGPLTRQGLRIRVTDLVSAPYVEITLAMMRAFGVEVAREGDVFVVPPGGYRATTYAIEPDASTASYFFAAAALTPGAEVTVPGLGTGALQGDLGFVDVLRRMGAEVSVGADATTVRGTGELRGLTANMRDISDTMPTLAAIAPFASAPVRIEDVANTRVKECDRLEACAENLRRLGVRVATGPDWIEIHPGPATGAQVTSYGDHRIVMSFAVTGLRVPGISFDDPGCVRKTFPGFHEAFAELRRGIGS
For the molecule B4, in data set [1], the “tolerant to glyphosate at concentrations” value was more than 80 mM and the Km was determined as 91.6 µM.
